From patent publication US20170066807A1 (Pieris, published 2017)

Target: T1, human GPC-3 on cells (SK Hep1:hGPC-3 transfectants; HepG2) (human, UniProt P51654 25-554)
T1 construct: whole, on cells; The same molecule is used for the transfected SK-Hep1 cells and the GPC-3 positive HepG2 cells; The cell line is named under assay; also called Glypican-3
Experiment: confocal microscopy, cell surface staining of SK Hep1:hGPC-3 cells
Procedure: Incubation of SK Hep1:hGPC-3 and SK Hep1:EV (empty vector control) and HepG2 cells with hNGAL muteins (SEQ ID NOs: 1-6) and staining of GPC-3 and bound hNGAL muteins followed by confocal microscopy. Cells (SK Hep1:GPC-3, SK Hep1:EV or HepG2) were grown at 37° in a humidified CO2 incubator for 24 hrs and exposed to hNGAL muteins 1.0 ug/mL, fixed (4% PFA in PBS) and stained with a rabbit anti-lipocalin antibody overnight at 4° C. prior to addition of secondary donkey anti-rabbit AF568 antibody. For nuclei staining, cells were incubated in 300 uL of DAPI solution (1:50000 DAPI in PBS). Slides were viewed using Leica TCS SP5 DNI6000 CS Confocal Microscope (Leica) using the following lasers. […] Results clearly indicate binding of ail hNGAL muteins (SEQ ID NOs: 2-6) to the cell lines expressing GPC-3 (presence of GPC-3 on the surface of the cells was also confirmed by confocal imaging) and lack of binding of such hNGAL muteins to control cell line (SK-Hep1:EV).

T1 sequence (P51654 25-554 limits assumed): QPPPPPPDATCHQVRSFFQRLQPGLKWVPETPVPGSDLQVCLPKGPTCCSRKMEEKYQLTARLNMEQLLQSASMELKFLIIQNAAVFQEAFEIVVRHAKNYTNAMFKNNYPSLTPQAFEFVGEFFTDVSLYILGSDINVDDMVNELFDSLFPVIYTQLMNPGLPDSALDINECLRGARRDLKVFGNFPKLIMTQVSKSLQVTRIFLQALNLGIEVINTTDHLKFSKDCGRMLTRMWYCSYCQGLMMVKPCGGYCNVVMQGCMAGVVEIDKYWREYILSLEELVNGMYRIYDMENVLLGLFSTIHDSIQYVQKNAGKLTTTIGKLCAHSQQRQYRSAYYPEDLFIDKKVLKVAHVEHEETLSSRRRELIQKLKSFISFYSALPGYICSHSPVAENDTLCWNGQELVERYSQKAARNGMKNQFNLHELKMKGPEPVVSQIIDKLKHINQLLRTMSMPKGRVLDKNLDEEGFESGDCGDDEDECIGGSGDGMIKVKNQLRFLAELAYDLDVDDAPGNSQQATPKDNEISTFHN

binding result: no binding (tested: 1.0 ug/mL)
B1: lipocalin control (SEQ ID NO: 1) (other)
chain: QDSTSDLIPAPPLSKVPLQQNFQDNQFHGKWYVVGLAGNAILREDKDPQKMYATIYELKEDKSYNVTSVLFRKKKCDYWIRTFVPGSQPGEFTLGNIKSYPGLTSYLVRVVSTNYNQHAMVFFKKVSQNREYFKITLYGRTKELTSELKENFIRFSKSLGLPENHIVFPVPIDQCIDG
notes: also called mature human Lipocalin 2; mature hNGAL
